Data reported in US20250188479A1.

Substrate: CC(C)=CCC/C(C)=C/COP(=O)(O)OP(=O)(O)O
Experiment: purified protein, by the assay type
Settings: other: purified wildtype RhNUDX1, this study; pH 8.0

B1: Rosa hybrida (Rosa hybrid cultivar) RhNUDX1, GPP phosphohydrolase, wildtype, UniProt JQ820249, SEQ ID NO: 14 (Rosa hybrid cultivar) (protein)
chain: MGNETVVVAETAGSIKVAVVVCLLRGQNVLLGRRRSSLGDSTFSLPSGHLEFGESFEECAARELKEETDLDIGKIELLTVTNNLFLDEAKPSQYVAVFMRAVLADPRQEPQNIEPEFCDGWGWYEWDNLPKPLFWPLDNVVQDGFNPFPT
  Km: 46.4 ± 4.4 µM
  kcat: 0.36 s⁻¹
  kcat/Km: 7747 ± 1736 M⁻¹ s⁻¹
